This series deals with the molecule itself. Put plainly: mass photometry.

B1: full-length, wild-type Cdc13 (natural protein, S. cerevisiae, UniProt P32797 1-924, looked up)
chain: MDTLEEPECPPHKNRIFVSSSKDFEGYPSKAIVPVQFVALLTSIHLTETKCLLGFSNFERRGDQSQEDQYLIKLKFKDRGSERLARITISLLCQYFDIELPDLDSDSGASPTVILRDIHLERLCFSSCKALYVSKHGNYTLFLEDIKPLDLVSVISTISTKSTNSSKHSSSELISECDLNNSLVDIFNNLIEMNRDEKNRFKFVKLIHYDIELKKFVQDQQKVLSQKSKAAAINPFFVPNRLGIPYIESQNEFNSQLMTLNVDEPTTDISNMGEEMHDSADPIEDSDSSTTSSTGKYFSSKSYIQSQTPERKTSVPNNWHDDDSGSKRKRKLSFHSPNASSIRKAISYEQLSLASVGSVERLEGKIVGMNPPQFASINEFKYCTLKLYFTQLLPNVPDKVLVPGVNCIEIVIPTRERICELFGVLNCQSDKISDILLLEKPDRISVEVERILWDNDKTASPGMAVWSLKNISTDTQAQAQVQVPAQSSASIDPSRTRMSKMARKDPTIEFCQLGLDTFETKYITMFGMLVSCSFDKPAFISFVFSDFTKNDIVQNYLYDRYLIDYENKLELNEGFKAIMYKNQFETFDSKLRKIFNNGLRDLQNGRDENLSQYGIVCKMNIKVKMYNGKLNAIVRECEPVPHSQISSIASPSQCEHLRLFYQRAFKRIGESAISRYFEEYRRFFPIHRNGSHLAKLRFDEVKHEPKKSPTTPALAEHIPDLNADVSSFDVKFTDISSLLDSSARLPRPQQTHKSNTLYSCEGRIIAIEYHASDLCFHITNELPLLQTRGLAPERVLQLHIITSKNFAYFFNRSSAYLQRQPLEEKYTQLAQFLGHSFKFNITSSLTLFPDTTVALQIWCPIECTFRELQQQLAHPKVAAAPDSGSLDCAINATVNPLRLLAAQNGVTVKKEEDNDDDAGAVPTS
The term stoichiometry N denotes the number of molecules, sites or subunits per partner or assembly. For the protein B1, the “stoichiometry N” value was determined as 2.
